According to patent US20260308269 (published 2026):

T1: human TfR apical domain (human)
T1 chain: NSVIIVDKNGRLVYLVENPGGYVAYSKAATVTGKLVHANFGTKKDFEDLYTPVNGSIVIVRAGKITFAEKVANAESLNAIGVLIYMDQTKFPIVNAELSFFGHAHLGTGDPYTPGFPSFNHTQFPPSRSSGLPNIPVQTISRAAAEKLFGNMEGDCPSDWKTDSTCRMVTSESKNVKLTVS

T2: human CD98hc (human)
T2 chain: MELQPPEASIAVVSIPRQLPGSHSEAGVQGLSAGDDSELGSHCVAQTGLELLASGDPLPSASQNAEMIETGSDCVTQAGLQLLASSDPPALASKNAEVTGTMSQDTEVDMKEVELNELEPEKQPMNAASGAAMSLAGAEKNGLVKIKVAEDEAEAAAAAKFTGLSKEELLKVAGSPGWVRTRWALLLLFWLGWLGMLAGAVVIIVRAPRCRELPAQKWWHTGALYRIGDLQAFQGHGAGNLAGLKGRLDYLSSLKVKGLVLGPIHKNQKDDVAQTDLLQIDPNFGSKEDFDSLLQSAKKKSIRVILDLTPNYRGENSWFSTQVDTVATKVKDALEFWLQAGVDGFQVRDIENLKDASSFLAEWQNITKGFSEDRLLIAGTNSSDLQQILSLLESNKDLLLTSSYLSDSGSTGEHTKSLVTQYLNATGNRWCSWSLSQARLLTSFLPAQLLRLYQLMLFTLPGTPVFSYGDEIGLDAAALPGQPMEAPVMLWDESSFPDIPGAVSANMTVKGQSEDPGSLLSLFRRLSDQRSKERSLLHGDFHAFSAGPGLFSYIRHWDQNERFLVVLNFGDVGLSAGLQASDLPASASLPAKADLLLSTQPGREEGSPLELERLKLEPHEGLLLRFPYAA


Target: T1, human TfR apical domain
Test: SPR

Row | Kd [µM] | Binder
1 | 16 | 35.d1.19 (protein) ASTKGPSVFPLAPSSKSTSGGTAALGCLVKDYFPEPVTVSWNSGALTSGVHTFPAVLQSSGLYSLSSVVTVPSSSLGTQTYICNVNHKPSNTKVDKKVEPKSCDKTHTCPPCPAPELLGGPSVFLFPPKPKDTLMISRTPEVTCVVVDVSHEDPEVKFNWYVDGVEVHNAKTKPREEQYNSTYRVVSVLTVLHQDWLNGKEYKCKVSNKALPAPIEKTISKAKGQPREPQVYTLPPSRDELTKNQVSLTCLVKGFYPSDIAVEWESFGTEWVNYKTTPPVLDSDGSFFLYSKLTVSKSEWQQGYVFSCSVMHEALHNHYTQKSLSLSPELQLEESCAEAQDGELDGLWTT
2 | 1.4 | 35.d1.4 (protein) ASTKGPSVFPLAPSSKSTSGGTAALGCLVKDYFPEPVTVSWNSGALTSGVHTFPAVLQSSGLYSLSSVVTVPSSSLGTQTYICNVNHKPSNTKVDKKVEPKSCDKTHTCPPCPAPELLGGPSVFLFPPKPKDTLMISRTPEVTCVVVDVSHEDPEVKFNWYVDGVEVHNAKTKPREEQYNSTYRVVSVLTVLHQDWLNGKEYKCKVSNKALPAPIEKTISKAKGQPREPQVYTLPPSRDELTKNQVSLTCLVKGFYPSDIAVEWESFGTEWSSYKTTPPVLDSDGSFFLYSKLTVSKSEWQQGFVFSCSVMHEALHNHYTQKSLSLSPELQLEESCAEAQDGELDGLWTT
3 | 4.3 | 35.d1.2 (protein) ASTKGPSVFPLAPSSKSTSGGTAALGCLVKDYFPEPVTVSWNSGALTSGVHTFPAVLQSSGLYSLSSVVTVPSSSLGTQTYICNVNHKPSNTKVDKKVEPKSCDKTHTCPPCPAPELLGGPSVFLFPPKPKDTLMISRTPEVTCVVVDVSHEDPEVKFNWYVDGVEVHNAKTKPREEQYNSTYRVVSVLTVLHQDWLNGKEYKCKVSNKALPAPIEKTISKAKGQPREPQVYTLPPSRDELTKNQVSLTCLVKGFYPSDIAVEWESYGTEWTSYKTTPPVLDSDGSFFLYSKLTVTKSEWQQGFVFSCSVMHEALHNHYTQKSLSLSPELQLEESCAEAQDGELDGLWTT
4 | 3.5 | 35.d1.23 (protein) ASTKGPSVFPLAPSSKSTSGGTAALGCLVKDYFPEPVTVSWNSGALTSGVHTFPAVLQSSGLYSLSSVVTVPSSSLGTQTYICNVNHKPSNTKVDKKVEPKSCDKTHTCPPCPAPELLGGPSVFLFPPKPKDTLMISRTPEVTCVVVDVSHEDPEVKFNWYVDGVEVHNAKTKPREEQYNSTYRVVSVLTVLHQDWLNGKEYKCKVSNKALPAPIEKTISKAKGQPREPQVYTLPPSRDELTKNQVSLTCLVKGFYPSDIAVEWESYGTEWTNYKTTPPVLDSDGSFFLYSKLTVSKEEWQQGFVFSCSVMHEALHNHYTQKSLSLSPELQLEESCAEAQDGELDGLWTT
5 | 6.2 | 35.d1.1 (protein) ASTKGPSVFPLAPSSKSTSGGTAALGCLVKDYFPEPVTVSWNSGALTSGVHTFPAVLQSSGLYSLSSVVTVPSSSLGTQTYICNVNHKPSNTKVDKKVEPKSCDKTHTCPPCPAPELLGGPSVFLFPPKPKDTLMISRTPEVTCVVVDVSHEDPEVKFNWYVDGVEVHNAKTKPREEQYNSTYRVVSVLTVLHQDWLNGKEYKCKVSNKALPAPIEKTISKAKGQPREPQVYTLPPSRDELTKNQVSLTCLVKGFYPSDIAVEWESYGNEWSSYKTTPPVLDSDGSFFLYSKLTVTKSEWQQGFVFSCSVMHEALHNHYTQKSLSLSPELQLEESCAEAQDGELDGLWTT
6 | 3.6 | 35.d1.15 (protein) ASTKGPSVFPLAPSSKSTSGGTAALGCLVKDYFPEPVTVSWNSGALTSGVHTFPAVLQSSGLYSLSSVVTVPSSSLGTQTYICNVNHKPSNTKVDKKVEPKSCDKTHTCPPCPAPELLGGPSVFLFPPKPKDTLMISRTPEVTCVVVDVSHEDPEVKFNWYVDGVEVHNAKTKPREEQYNSTYRVVSVLTVLHQDWLNGKEYKCKVSNKALPAPIEKTISKAKGQPREPQVYTLPPSRDELTKNQVSLTCLVKGFYPSDIAVEWESYGTEWSNYKTTPPVLDSDGSFFLYSKLTVSKSEWQQGYVFSCSVMHEALHNHYTQKSLSLSPELQLEESCAEAQDGELDGLWTT
7 | 11.2 | 35.d1.6 (protein) ASTKGPSVFPLAPSSKSTSGGTAALGCLVKDYFPEPVTVSWNSGALTSGVHTFPAVLQSSGLYSLSSVVTVPSSSLGTQTYICNVNHKPSNTKVDKKVEPKSCDKTHTCPPCPAPELLGGPSVFLFPPKPKDTLMISRTPEVTCVVVDVSHEDPEVKFNWYVDGVEVHNAKTKPREEQYNSTYRVVSVLTVLHQDWLNGKEYKCKVSNKALPAPIEKTISKAKGQPREPQVYTLPPSRDELTKNQVSLTCLVKGFYPSDIAVEWESYGTEWTSYKTTPPVLDSDGSFFLYSKLTVSKSEWQQGFVFSCSVMHEALHNHYTQKSLSLSPELQLEESCAEAQDGELDGLWTT
8 | 5.2 | 35.d1.22 (protein) ASTKGPSVFPLAPSSKSTSGGTAALGCLVKDYFPEPVTVSWNSGALTSGVHTFPAVLQSSGLYSLSSVVTVPSSSLGTQTYICNVNHKPSNTKVDKKVEPKSCDKTHTCPPCPAPELLGGPSVFLFPPKPKDTLMISRTPEVTCVVVDVSHEDPEVKFNWYVDGVEVHNAKTKPREEQYNSTYRVVSVLTVLHQDWLNGKEYKCKVSNKALPAPIEKTISKAKGQPREPQVYTLPPSRDELTKNQVSLTCLVKGFYPSDIAVEWESYGNEWSNYKTTPPVLDSDGSFFLYSKLTVSKEEWQQGFVFSCSVMHEALHNHYTQKSLSLSPELQLEESCAEAQDGELDGLWTT
9 | 13.6 | 35.d1.5 (protein) ASTKGPSVFPLAPSSKSTSGGTAALGCLVKDYFPEPVTVSWNSGALTSGVHTFPAVLQSSGLYSLSSVVTVPSSSLGTQTYICNVNHKPSNTKVDKKVEPKSCDKTHTCPPCPAPELLGGPSVFLFPPKPKDTLMISRTPEVTCVVVDVSHEDPEVKFNWYVDGVEVHNAKTKPREEQYNSTYRVVSVLTVLHQDWLNGKEYKCKVSNKALPAPIEKTISKAKGQPREPQVYTLPPSRDELTKNQVSLTCLVKGFYPSDIAVEWESYGNEWSSYKTTPPVLDSDGSFFLYSKLTVSKSEWQQGFVFSCSVMHEALHNHYTQKSLSLSPELQLEESCAEAQDGELDGLWTT
10 | 11.7 | 35.d1.14 (protein) ASTKGPSVFPLAPSSKSTSGGTAALGCLVKDYFPEPVTVSWNSGALTSGVHTFPAVLQSSGLYSLSSVVTVPSSSLGTQTYICNVNHKPSNTKVDKKVEPKSCDKTHTCPPCPAPELLGGPSVFLFPPKPKDTLMISRTPEVTCVVVDVSHEDPEVKFNWYVDGVEVHNAKTKPREEQYNSTYRVVSVLTVLHQDWLNGKEYKCKVSNKALPAPIEKTISKAKGQPREPQVYTLPPSRDELTKNQVSLTCLVKGFYPSDIAVEWESYGTEWTNYKTTPPVLDSDGSFFLYSKLTVSKSEWQQGFVFSCSVMHEALHNHYTQKSLSLSPELQLEESCAEAQDGELDGLWTT
11 | 1.3 | 35.d1.3 (protein) ASTKGPSVFPLAPSSKSTSGGTAALGCLVKDYFPEPVTVSWNSGALTSGVHTFPAVLQSSGLYSLSSVVTVPSSSLGTQTYICNVNHKPSNTKVDKKVEPKSCDKTHTCPPCPAPELLGGPSVFLFPPKPKDTLMISRTPEVTCVVVDVSHEDPEVKFNWYVDGVEVHNAKTKPREEQYNSTYRVVSVLTVLHQDWLNGKEYKCKVSNKALPAPIEKTISKAKGQPREPQVYTLPPSRDELTKNQVSLTCLVKGFYPSDIAVEWESYGTEWSSYKTTPPVLDSDGSFFLYSKLTVTKSEWQQGYVFSCSVMHEALHNHYTQKSLSLSPELQLEESCAEAQDGELDGLWTT
12 | 35.6 | 35.d1.16 (protein) ASTKGPSVFPLAPSSKSTSGGTAALGCLVKDYFPEPVTVSWNSGALTSGVHTFPAVLQSSGLYSLSSVVTVPSSSLGTQTYICNVNHKPSNTKVDKKVEPKSCDKTHTCPPCPAPELLGGPSVFLFPPKPKDTLMISRTPEVTCVVVDVSHEDPEVKFNWYVDGVEVHNAKTKPREEQYNSTYRVVSVLTVLHQDWLNGKEYKCKVSNKALPAPIEKTISKAKGQPREPQVYTLPPSRDELTKNQVSLTCLVKGFYPSDIAVEWESFGNEWSNYKTTPPVLDSDGSFFLYSKLTVSKSEWQQGFVFSCSVMHEALHNHYTQKSLSLSPELQLEESCAEAQDGELDGLWTT

Target: T2, human CD98hc
Test: SPR

Row | Kd [nM] | Binder
13 | 32 | LLB1-3-16 (protein) APELLGGPSVFLFPPKPKDTLMISRTPEVTCVVVDVSHEDPEVKFNWYVDGVEVHNAKTKPREEQYNSTYRVVSVLTVLHQDWLNGKEYKCKVSNKALPAPIEKTISKAKGQPREPQVYTLPPSRDELTKNQVSLTCLVKGFYPSDIAVEWRTYKPYETNYKTTPPVLDSDGSFFLYSKLTVDKSRWQQGDIFVCDVLHEALHNHFTIKKLSLSPGK
14 | 175 | LLB1-3-16-2 (protein) APELLGGPSVFLFPPKPKDTLMISRTPEVTCVVVDVSHEDPEVKFNWYVDGVEVHNAKTKPREEQYNSTYRVVSVLTVLHQDWLNGKEYKCKVSNKALPAPIEKTISKAKGQPREPQVYTLPPSRDELTKNQVSLTCLVKGFYPSDIAVEWRTYKPYETNYKTTPPVLDSDGSFFLYSKLTVDKSRWQQGDIFVCDVMHEALHNHFTIKKLSLSPGK
15 | 550 | LLB2-10-8-d6 (protein) APELLGGPSVFLFPPKPKDTLMISRTPEVTCVVVDVSHEDPEVKFNWYVDGVEVHNAKTKPREEQYNSTYRVVSVLTVLHQDWLNGKEYKCKVSNKALPAPIEKTISKAKGQPREPQVYTLPPSRDELTKNQVSLTCLVKGFYPSDIAVLWNSRFVLENNYKTTPPVLDSDGSFFLYSKLTVDKSRWQQGNVFACNVYHEALHNHYTFKNLALSPGK
